Assay results taken from publication PMC11286949, “Structural basis of tRNA recognition by the widespread OB fold”.

Legend:
[1] = molecular target: T1, Trbp111 (Aquifex aeolicus, UniProt O66738 1-111); assay: competition FP; vs fluorescein-tRNATyr; FP: 25 mM Tris-HCl pH 7.5, 2 mM MgCl2, 50 mM NaCl (Trbp111) or 150 mM NaCl (Arc1p), room temperature; ITC: 25 mM Tris-HCl pH 7.4, 150 mM NaCl, 2 mM MgCl2, 25 C; details: protein: recombinant; tags: His-MBP removed (PreScission); chain copies: 2; single strand
T1 sequence (O66738 entry or part of it): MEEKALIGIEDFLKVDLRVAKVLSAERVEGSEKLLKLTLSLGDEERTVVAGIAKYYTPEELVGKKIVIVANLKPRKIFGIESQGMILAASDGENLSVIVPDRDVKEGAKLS

[2] = molecular target: T1, Trbp111; assay: competition fluorescence polarization; ITC (Arc1p): 25 mM Tris-HCl pH 7.4, 150 mM NaCl, 2 mM MgCl2, 25 °C. FP and competition FP: 25 mM Tris-HCl pH 7.5, 150 mM NaCl (Arc1p) or 50 mM NaCl (Trbp111), 2 mM MgCl2, room temperature; details: protein: recombinant, tags: His-MBP removed (PreScission), chain copies: 2
[3] = molecular target: T2, Arc1p dN (Saccharomyces cerevisiae, UniProt P46672 132-376, del1-131); assay: ITC; ITC (Arc1p): 25 mM Tris-HCl pH 7.4, 150 mM NaCl, 2 mM MgCl2, 25 °C. FP and competition FP: 25 mM Tris-HCl pH 7.5, 150 mM NaCl (Arc1p) or 50 mM NaCl (Trbp111), 2 mM MgCl2, room temperature; details: protein: recombinant, tags: His-MBP removed
T2 sequence: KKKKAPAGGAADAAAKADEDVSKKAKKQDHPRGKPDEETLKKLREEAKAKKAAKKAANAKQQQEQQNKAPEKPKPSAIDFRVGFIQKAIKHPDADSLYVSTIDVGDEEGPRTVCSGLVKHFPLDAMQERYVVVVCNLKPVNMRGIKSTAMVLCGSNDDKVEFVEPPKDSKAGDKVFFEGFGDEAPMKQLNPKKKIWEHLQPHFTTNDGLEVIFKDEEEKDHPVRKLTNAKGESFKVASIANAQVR

[4] = molecular target: T2, Arc1p dN; assay: competition fluorescence polarization; ITC (Arc1p): 25 mM Tris-HCl pH 7.4, 150 mM NaCl, 2 mM MgCl2, 25 °C. FP and competition FP: 25 mM Tris-HCl pH 7.5, 150 mM NaCl (Arc1p) or 50 mM NaCl (Trbp111), 2 mM MgCl2, room temperature; details: protein: recombinant, tags: His-MBP removed
[5] = molecular target: T3, Arc1p (Saccharomyces cerevisiae, UniProt P46672 1-376); assay: as above; details: protein: recombinant, tags: His-MBP removed
T3 sequence: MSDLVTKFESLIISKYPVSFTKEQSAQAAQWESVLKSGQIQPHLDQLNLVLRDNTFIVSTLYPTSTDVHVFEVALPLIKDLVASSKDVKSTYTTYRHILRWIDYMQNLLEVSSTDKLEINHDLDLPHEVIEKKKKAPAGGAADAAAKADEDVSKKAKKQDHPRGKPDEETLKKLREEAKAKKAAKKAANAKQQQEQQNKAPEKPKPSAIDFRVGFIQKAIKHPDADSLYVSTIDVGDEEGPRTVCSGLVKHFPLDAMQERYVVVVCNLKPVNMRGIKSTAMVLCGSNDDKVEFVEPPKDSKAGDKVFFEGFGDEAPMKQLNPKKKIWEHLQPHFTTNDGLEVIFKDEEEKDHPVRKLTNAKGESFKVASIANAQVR

CCACUCAGGCCUACCA (ssRNA) [ssRNA 3'ACCA]
IC50 [1]: 8.2 ± 0.8 µM | IC50 ([2]; single strand): 8.63 ± 0.796 µM

B1: tRNAIle ASL-GAAA (structured_RNA)
RNA: GGGCUUGUAGCUCAGGUGGUUAGAGCGCACCGCGAAAGCGGUGAGGUCGGUGGUUCAAGUCCACUCAGGCCUACCA
Kd ([3]; tRNA fold): 0.252 ± 0.11 µM

B2: tRNAIle ASL-GAAA/dACCA (structured_RNA)
RNA: GGGCUUGUAGCUCAGGUGGUUAGAGCGCACCGCGAAAGCGGUGAGGUCGGUGGUUCAAGUCCACUCAGGCCC
Kd ([3]; tRNA fold): 1.75 ± 0.958 µM

B3: tRNAIle 3'UGGU (structured_RNA)
RNA: AGGCUUGUAGCUCAGGUGGUUAGAGCGCACCCCUGAUAAGGGUGAGGUCGGUGGUUCAAGUCCACUCAGGCCUUGGU
Kd ([3]; tRNA fold): 0.654 ± 0.165 µM

B4: tRNAIle ASL-GAAA/5'GC (structured_RNA)
RNA: GCGGGCUUGUAGCUCAGGUGGUUAGAGCGCACCGCGAAAGCGGUGAGGUCGGUGGUUCAAGUCCACUCAGGCCC
Kd ([3]; palindromic tail, weak dimer): 1.5 ± 0.283 µM

B5: tRNAIle ASL-GAAA/5'GGCC (structured_RNA)
RNA: GGCCGGGCUUGUAGCUCAGGUGGUUAGAGCGCACCGCGAAAGCGGUGAGGUCGGUGGUUCAAGUCCACUCAGGCCC
Kd ([3]; palindromic tail, strong dimer): 3.3 µM

B6: tRNAIle G18C/G19C (G1, Fig. 5a) (structured_RNA)
RNA: GGGCUUGUAGCUCAGGUCCUUAGAGCGCACCCCUGAUAAGGGUGAGGUCGGUGGUUCAAGUCCACUCAGGCCUACCA
Kd ([3]; elbow disrupted): 3.33 µM

B7: tRNAIle G18C/G19C/dACCA (structured_RNA)
RNA: GGGCUUGUAGCUCAGGUCCUUAGAGCGCACCCCUGAUAAGGGUGAGGUCGGUGGUUCAAGUCCACUCAGGCCC
Kd ([3]; elbow disrupted): 2.79 ± 0.304 µM

B8: tRNAIle dACCA (structured_RNA)
RNA: GGGCUUGUAGCUCAGGUGGUUAGAGCGCACCCCUGAUAAGGGUGAGGUCGGUGGUUCAAGUCCACUCAGGCCC
Kd ([3]; tRNA fold): 2.1 ± 0.985 µM

AGGCUUGGGUGGUUCAAGUCCACUCAGGCCU (structured_RNA) [MiniH dACCA]
binding result ([2]; hairpin): no binding | IC50 ([4]; hairpin): 10.5 ± 2.82 µM

B9: tRNATyr G17C/G18C (structured_RNA)
RNA: GGUGGGGUUCCCGAGCCCCCAAAGGGAGCAGACUGUAAAUCUGCCGUCAUCGACUUCGAAGGUUCGAAUCCUUCCCCCACCACCA
IC50 [4]: 0.652 ± 0.0471 µM | IC50 [5]: 4.52 µM

AGGCUUGGGUGGUUCAAGUCCACUCAGGCCUACA (structured_RNA) [MiniH dC74]
IC50 ([2]; hairpin): 5.06 ± 0.269 µM | IC50 ([4]; hairpin): 3.03 ± 0.158 µM

AGGCUUGGGUGGUUCAAGUCCACUCAGGCCUCCA (structured_RNA) [MiniH dA73]
IC50 ([2]; hairpin): 5.21 ± 0.817 µM | IC50 ([4]; hairpin): 2.45 ± 0.511 µM

AGGCUUGGGUGGUUCAAGUCCACUCAGGCCUACAA (structured_RNA) [MiniH-ACAA]
IC50 [4]: 3.08 ± 0.63 µM

AGGCUUGGGUGGUUCAAGUCCACUCAGGCCUACUA (structured_RNA) [MiniH-ACUA]
IC50 [4]: 2.6 ± 0.397 µM

AGGCUUGGGUGGUUCAAGUCCACUCAGGCCUACGA (structured_RNA) [MiniH-ACGA]
IC50 [4]: 4.83 ± 0.11 µM

AGGCUUGGGUGGUUCAAGUCCACUCAGGCCUACAC (structured_RNA) [MiniH-ACAC]
IC50 ([4]; hairpin): 3.92 ± 0.672 µM

B10: tRNATyr ASL-GAAA dACCA 6bp (structured_RNA)
RNA: GGGCCCGGUGGGGUUCCCGAGCGGCCAAAGGGAGCAGACGAAAGUCUGCCGUCAUCGACUUCGAAGGUUCGAAUCCUUCCCCCACCGGGCCC
IC50 [4]: 1.02 ± 0.224 µM | IC50 [5]: 5.11 µM

B11: MiniH dLoop (dsRNA)
RNA 1: CCACUCAGGCCUACCA
RNA 2: AGGCUUGGGUGG
IC50 [4]: 2.26 ± 1.21 µM

AGGCUUGGGUGCGAAAGCACUCAGGCCUACCA (structured_RNA) [MiniH LoopGAAA]
IC50 [4]: 3.06 ± 0.0821 µM

AGGCUUGGGUGGUUUUUUUCCACUCAGGCCUACCA (structured_RNA) [MiniH ULoop]
IC50 [4]: 3.95 ± 0.248 µM

AGGCUUGGGUGGUUCAAGUCCACUCAGGCCUACCAUUUU (structured_RNA) [MiniH +UUUU]
binding result ([2]; hairpin): no binding | IC50 ([4]; hairpin): 9.39 ± 0.782 µM

B12: MiniH dLoop+6bp (dsRNA)
RNA 1: GCAUGACCACUCAGGCCUACCA
RNA 2: AGGCUUGGGUGGUUAUGC
IC50 [4]: 3.47 ± 0.263 µM

B13: MiniH dLoop+4bp (dsRNA)
RNA 1: GUGACCACUCAGGCCUACCA
RNA 2: AGGCUUGGGUGGUUAC
IC50 [4]: 3.9 ± 0.124 µM

B14: MiniH dLoop+2bp (dsRNA)
RNA 1: GACCACUCAGGCCUACCA
RNA 2: AGGCUUGGGUGGUC
IC50 [4]: 4.66 ± 1.43 µM

AGGCUUUUCAAGUAGGCCU (structured_RNA) [MicroH dACCA]
IC50 ([4]; hairpin): 53.7 ± 5.22 µM

AGGCUUUUCAAGUAGGCCUUGGU (structured_RNA) [MicroH 3'UGGU]
IC50 [4]: 15.3 ± 3.31 µM

AGGCUUCGAAAGAGGCCUACCA (structured_RNA) [MicroH GAAA loop]
IC50 ([2]; hairpin): 5.92 ± 0.188 µM | IC50 ([4]; hairpin): 13.4 ± 5.38 µM

AGGCUUCGAAAGAGGCCUUGGU (structured_RNA) [MicroH UGGU]
binding result ([2]; hairpin): no binding | IC50 ([4]; hairpin): 43 ± 7.65 µM

B15: tRNAIle G18C/G19C (A1, Suppl. Fig. 13b) (structured_RNA)
RNA: AGGCUUGUAGCUCAGGUCCUUAGAGCGCACCCCUGAUAAGGGUGAGGUCGGUGGUUCAAGUCCACUCAGGCCUACCA
IC50 [4]: 0.804 ± 0.107 µM

B16: tRNAIle ASL-GAAA dACCA 3bp (structured_RNA)
RNA: GGCGGGCUUGUAGCUCAGGUGGUUAGAGCGCACCGCGAAAGCGGUGAGGUCGGUGGUUCAAGUCCACUCAGGCCCGCC
IC50 [4]: 0.681 ± 0.201 µM | IC50 [5]: 9.92 µM

B17: S. cerevisiae tRNAAsp (G1-C72) (structured_RNA)
RNA: GCCGUGAUAGUUUAAUGGUCAGAAUGGGCGCUUGUCGCGUGCCAGAUCGGGGUUCAAUUCCCCGUCGCGGCGCCA
IC50 [4]: 0.402 ± 0.0538 µM | IC50 [5]: 1.71 ± 0.125 µM

B18: human mascRNA (structured_RNA)
RNA: GAUGCUGGUGGUUGGCACUCCUGGUUUCCAGGACGGGGUUCAAAUCCCUGCGGCGUCUCCA
IC50 ([4]; tRNA-like): 0.377 ± 0.0571 µM | IC50 ([5]; tRNA-like): 1.14 ± 0.127 µM

AGGCUUGGGUGGUUCAAGUCCACUCAGGCCUACCA (mixed, four terminal deoxyriboses) [MiniH DNA tail]
IC50 ([2]; hairpin): 7.51 ± 1.02 µM

CCACUCAGGCCU (ssRNA) [ssRNA dACCA]
binding result ([2]; single strand): no binding

ACCACUCACGCCU (ssRNA) [ssRNA 5'ACCA]
binding result ([2]; single strand): no binding

B19: tRNAIle d3'A (structured_RNA)
RNA: AGGCUUGUAGCUCAGGUGGUUAGAGCGCACCCCUGAUAAGGGUGAGGUCGGUGGUUCAAGUCCACUCAGGCCUACC
Kd ([3]; tRNA fold): 1.04 ± 0.295 µM
